# Test results taken from publication PMC3692002 (Proteins, 2011).
# Target: the molecule itself
# Experiment: static light scattering
protein,measurement,value
"UgR76, uncharacterized 73 residue domain from Ruminococcus gnavus (domain or fragment) MSEHREGTLFYDTETGRYDIRFDLESFYGGLHCGECFDVKVKDVWVPVRIEMGDDWYLVGLNVSRLDGLRVRMLEHHHHHH",stoichiometry N,2
